This is an account of results in patent US20240270866A1 (Alector, published 2024).

The target of assay [1] is T1, human SIRPA Fc fusion antigen (human, UniProt P78324 31-373).
T1 construct: heterologous signal peptide; not shown: human IgG1 Fc
Put plainly: ForteBio IgG avid. A general note: In BLI a coated tip is dipped into the sample, and binding shifts an interference pattern.

Assay [2] has as its target T2, human SIRPβ1 Fc fusion antigen (human, UniProt O00241 30-371).
T2 construct: not shown: human IgG1 Fc
In words: ForteBio IgG avid.

For assay [3], the target named is T3, mouse SIRPA overexpressed on CHO cells (mouse, UniProt P97797 32-513).
T3 construct: also called CHO-muSIRPA
T3 sequence: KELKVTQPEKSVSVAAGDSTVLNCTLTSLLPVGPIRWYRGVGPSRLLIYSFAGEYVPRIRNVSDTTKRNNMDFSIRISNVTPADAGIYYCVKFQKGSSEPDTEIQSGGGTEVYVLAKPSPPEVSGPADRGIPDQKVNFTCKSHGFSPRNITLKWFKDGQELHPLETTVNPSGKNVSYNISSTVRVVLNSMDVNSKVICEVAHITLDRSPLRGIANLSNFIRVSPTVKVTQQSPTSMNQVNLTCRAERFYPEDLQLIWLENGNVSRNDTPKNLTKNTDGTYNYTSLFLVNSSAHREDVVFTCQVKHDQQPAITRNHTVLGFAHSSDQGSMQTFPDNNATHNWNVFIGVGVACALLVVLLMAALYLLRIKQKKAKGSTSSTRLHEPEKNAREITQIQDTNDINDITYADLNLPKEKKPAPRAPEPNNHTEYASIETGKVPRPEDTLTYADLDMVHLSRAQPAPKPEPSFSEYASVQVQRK
In words: flow, CHO-muSIRPA.

For a further assay, the target named is T4, Mouse SIRPA D1 Fc (mouse, UniProt P97797 32-150, limits assumed).
T4 sequence: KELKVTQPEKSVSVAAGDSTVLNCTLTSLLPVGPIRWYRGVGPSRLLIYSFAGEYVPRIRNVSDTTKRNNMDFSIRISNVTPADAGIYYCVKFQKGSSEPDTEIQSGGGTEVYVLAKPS
Put plainly: ForteBio IgG avid.

The target in another assay is Human SIRPb D1 Fc (human, UniProt O00241 30-148, limits assumed). In words: ForteBio IgG avid.
Sequence of Human SIRPb D1 Fc (O00241 30-148 limits assumed): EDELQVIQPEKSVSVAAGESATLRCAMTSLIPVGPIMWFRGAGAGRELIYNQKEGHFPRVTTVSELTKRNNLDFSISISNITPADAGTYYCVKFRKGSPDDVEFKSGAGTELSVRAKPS
In assay [4] the target is T5, human SIRPA overexpressed on CHO cells (human, UniProt P78324 31-504).
T5 construct: also called CHO-huSIRPA
In words: flow, CHO-huSIRPA.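 Further: Anti-SIRPA antibodies applied at 1 µg/mL for 1 h on ice, binding read by flow cytometry using a PE-labelled secondary antibody.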
Protocol: Initial characterization of anti-SIRPA antibodies of the present disclosure involved determining their ability to bind cell lines overexpressing human or mouse SIRPA. Cells were harvested, plated at 10⁶/ml in a 96 well plate, washed, and incubated in 100 ul PBS containing 1 ug/ml Mab for 1 hour in ice. Cells were then washed twice and incubated in 100 ul PBS containing 5 ug/ml PE-conjugated secondary antibody for 30 minutes in ice. Cells were washed twice in cold PBS and acquired on a BD FACS Canto. Data analysis and calculation of mean fluorescence intensity (MFI) values or % positive cells was performed with FlowJo® (TreeStar) software version 10.0.7.

Assay [5] addresses T3, mouse SIRPA overexpressed on CHO cells. Put plainly: flow, CHO-muSIRPA. The source holds these as a separate data set.

T2 sequence (O00241 30-371 limits assumed): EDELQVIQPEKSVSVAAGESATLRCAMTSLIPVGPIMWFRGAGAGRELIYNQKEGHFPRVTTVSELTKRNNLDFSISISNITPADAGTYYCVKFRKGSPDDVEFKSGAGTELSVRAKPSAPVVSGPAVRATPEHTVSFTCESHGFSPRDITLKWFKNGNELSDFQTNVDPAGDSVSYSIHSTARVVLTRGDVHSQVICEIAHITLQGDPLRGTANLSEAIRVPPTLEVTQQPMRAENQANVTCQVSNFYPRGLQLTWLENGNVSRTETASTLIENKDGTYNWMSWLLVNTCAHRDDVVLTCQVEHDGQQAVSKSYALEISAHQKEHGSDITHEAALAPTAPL

B1: SA-8-66 (antibody, V domains shown)
VH: QVQLVESGGGVVQPGRSLRLSCAASGFTFSSYGMHWVRQAPGKGLEWVAVINGDGSNKYYADSVKGRFTISRDNSKNTLYLQMNSLRAEDTAVYYCAKEPRSYWHGYGMDVWGQGTTVTVSS
VL: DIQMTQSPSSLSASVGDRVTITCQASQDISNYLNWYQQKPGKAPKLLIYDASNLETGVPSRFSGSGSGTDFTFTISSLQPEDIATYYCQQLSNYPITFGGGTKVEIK
notes: IgG
A word on the Kd: it is a measure of binding affinity in units of concentration. B1: the figures for the Kd in assay [1] and in assay [2] were 2.14 nM and 13.1 nM, respectively.

B2: SA-7 (antibody, V domains shown)
VH: QVQLVESGGGVVQPGRSLRLSCAASGFTFSSYGMHWVRQAPGKGLEWVALIWYDGSNKYYADSVKGRFTISRDNSKNTLYLQMNSLRAEDTAVYYCAKEGSSYADGWPYGMDVWGQGTTVTVSS
VL: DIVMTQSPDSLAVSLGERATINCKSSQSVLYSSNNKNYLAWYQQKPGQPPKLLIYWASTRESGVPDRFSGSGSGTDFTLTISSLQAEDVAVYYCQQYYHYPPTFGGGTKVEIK
notes: IgG
B2: the binding result in assay [3] is “no binding (tested: 1 ug/ml)”; in the assay with Mouse SIRPA D1 Fc, “no binding (tested: 100 nM)”; with Human SIRPb D1 Fc it was “no binding (tested: 100 nM)”. Further, the “relative MFI” value in assay [4] worked out at 0.708 fold over background; in assay [5], 0.515 fold over background.

B3: SA-19-72 (antibody, V domains shown)
VH: QVQLVESGGGVVQPGRSLGLSCAASGFTFSSYAMHWVRQAPGKGLEWVAGILYDGSNKYYADSVKGRFTISRDNSKNTLYLQMNSLRAEDTAVYYCARSNEKYTLGFAFDIWGQGTMVTVSS
VL: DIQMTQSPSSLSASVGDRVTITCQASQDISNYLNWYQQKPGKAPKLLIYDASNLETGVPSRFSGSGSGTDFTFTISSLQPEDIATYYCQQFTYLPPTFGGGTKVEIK
notes: IgG
With B3, the Kd in assay [1] was determined as 1.1 nM; in assay [2], 4.75 nM.

B4: SA-19-74 (antibody, V domains shown)
VH: QVQLVESGGGVVQPGRSLRLSCAASGFAFSSYAMHWVRQAPGKGLEWVAGILYDGSNKYYADSVKGRFTISRDNSKNTLYLQMNSLRAEDTAVYYCARHSQKYTLGFAFDIWGQGTMVTVSS
VL: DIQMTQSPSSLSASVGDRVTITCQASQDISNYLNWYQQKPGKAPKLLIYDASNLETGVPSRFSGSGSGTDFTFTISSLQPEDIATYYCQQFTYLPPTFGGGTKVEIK
notes: IgG
For the molecule B4, the Kd worked out at 0.676 nM in assay [1] and 4.08 nM in assay [2].

B5: SA-19-75 (antibody, V domains shown)
VH: QVQLVESGGGVVQPGRSLRLSCAASGFTFSSYGMHWVRQAPGKGLEWVAVIAYDGSNKLYADSVKGRFTISRDNSKNTLYLQMNSLRAEDTAVYYCALMRTKYTLGFAFDIWGQGTMVTVSS
VL: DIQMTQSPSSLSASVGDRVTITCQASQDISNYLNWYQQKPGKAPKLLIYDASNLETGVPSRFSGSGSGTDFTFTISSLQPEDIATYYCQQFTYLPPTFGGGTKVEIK
notes: IgG
B5: the results for the Kd in assay [1] and in assay [2] were 0.537 nM and 3.13 nM, respectively.

B6: SA-19-82 (antibody, V domains shown)
VH: QVQLVESGGGVVQPGRSLRLSCAASGFTFSSYAMHWVRQAPGKGLEWVAGILYDGSNKYYADSVKGRFTISRDNSKNTLYLQMNSLRAEDTAVYYCARHVLKYTLGFAFDIWGQGTMVTVSS
VL: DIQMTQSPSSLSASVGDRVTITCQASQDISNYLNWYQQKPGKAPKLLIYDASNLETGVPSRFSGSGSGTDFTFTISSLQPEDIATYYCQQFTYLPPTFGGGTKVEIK
notes: IgG
B6: the Kd in assay [1] worked out at 0.742 nM; in assay [2] it was 3.45 nM.

B7: SA-19-78 (antibody, V domains shown)
VH: QVQLVESGGGVVQPGRSLRLSCAASGFTFSSYGMHWVRQAPGKGLEWVAVIAYDGSNKLYADSVKGRFTISRDNSKNTLYLQMDSLRAEDTAVYYCATSDTKYTLGFAFDIWGQGTMVTVSS
VL: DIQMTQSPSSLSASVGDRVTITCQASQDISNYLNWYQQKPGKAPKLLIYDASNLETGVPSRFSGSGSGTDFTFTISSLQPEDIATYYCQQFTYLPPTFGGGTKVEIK
notes: IgG
On to B7, for which the results for the Kd in assay [1] and in assay [2] were 1.06 nM and 2.08 nM, respectively.

B8: SA-19-83 (antibody, V domains shown)
VH: QVQLVESGGGVVQPGRSLRLSCAASGFTFDSYLMHWVRQAPGKGLEWVASIIYDGSNKYYADSVKGRFTISRDNSKNTLYLQMNSLRAEDTAVYYCASVRTKYTLGFAFDIWGQGTMVTVSS
VL: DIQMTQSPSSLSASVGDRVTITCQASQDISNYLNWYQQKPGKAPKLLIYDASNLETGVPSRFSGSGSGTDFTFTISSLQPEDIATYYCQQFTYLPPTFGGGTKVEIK
notes: IgG
On to B8, for which the Kd came out at 0.505 nM in assay [1] and 2.82 nM in assay [2].

B9: SA-19-77 (antibody, V domains shown)
VH: QVQLVESGGGVVQPGRSLRLSCAASGFTFSSYGMAWVRQAPGKGLEWVAQILYDGSNEYYADSVKGRFTISRDNSKNTLYLQMNSLRAEDTAVYYCARDLTKYTLGFAFDIWGQGTMVTVSS
VL: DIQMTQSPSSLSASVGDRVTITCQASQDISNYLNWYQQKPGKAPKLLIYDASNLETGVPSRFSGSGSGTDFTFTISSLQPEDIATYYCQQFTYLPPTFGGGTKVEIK
notes: IgG
Turning to B9, the Kd in assay [1] stood at 0.441 nM; in assay [2] it was 3.94 nM.

B10: SA-19-76 (antibody, V domains shown)
VH: QVQLVESGGGVVQPGRSLRLSCAASGFTFSSYGMHWVRQAPGKGLEWVAVIAYDGSNKLYADSVKGRFTISRDNAKNSLYLQMNSPRAEDTAVYYCATMRTKYTLGFAFDIWGQGTMVTVSS
VL: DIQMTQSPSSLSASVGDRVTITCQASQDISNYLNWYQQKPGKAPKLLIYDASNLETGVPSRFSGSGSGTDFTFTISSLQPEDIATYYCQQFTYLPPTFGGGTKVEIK
notes: IgG
For B10, the Kd in assay [1] worked out at 0.504 nM; in assay [2], 2.05 nM.

B11: SA-19-84 (antibody, V domains shown)
VH: QVQLVESGGGVVQPGRSLRLSCAASGFTFSSYGMHWVRQAPGKGLEWVAVIAYDGSNKLYADSVKGRFTISRDNSKNTLYLQMNSLRAEDTAVYYCARTQLKYTLGFAFDIWGQGTMVTVSS
VL: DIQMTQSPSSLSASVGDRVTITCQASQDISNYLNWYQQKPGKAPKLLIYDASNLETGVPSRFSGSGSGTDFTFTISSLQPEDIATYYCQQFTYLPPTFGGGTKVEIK
notes: IgG
B11: the Kd in assay [1] was determined as 0.573 nM; in assay [2] it was 2.6 nM.

B12: SA-19-79 (antibody, V domains shown)
VH: QVQLVESGGGVVQPGRSLRLSCAASGFTFSSYGMHWVRQAPGKGLEWVAVIAYDGSNKIYADSVKGRFTISRDNSKNTLYLQMNSLRAEDTAVYYCATTDTKYTLGFAFDIWGQGTMVTVSS
VL: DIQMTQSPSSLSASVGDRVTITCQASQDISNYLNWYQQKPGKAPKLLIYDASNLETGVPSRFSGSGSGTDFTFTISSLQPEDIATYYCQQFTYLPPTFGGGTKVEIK
notes: IgG
With B12, the Kd amounted to 0.31 nM in assay [1] and 1.36 nM in assay [2].

B13: SA-19-73 (antibody, V domains shown)
VH: QVQLVESGGGLVQPGGSLRLSCAASGFTFSSYAMHWVRQAPGKGLEWVAGILYDGSNKYYADSVKGRFTISRDNSKNTLYLQMNSLRAEDTAVYYCANSDTKYTLGFAFDIWGQGTMVTVSS
VL: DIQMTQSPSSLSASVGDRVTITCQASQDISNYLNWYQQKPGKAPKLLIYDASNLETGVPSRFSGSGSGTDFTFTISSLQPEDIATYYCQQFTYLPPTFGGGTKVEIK
notes: IgG
In the case of B13, the Kd in assay [1] was 0.71 nM; in assay [2], 2.95 nM.

B14: SA-19-81 (antibody, V domains shown)
VH: QVQLVESGGGVVQPGRSLRLSCAASGFTSSSYGMHWVRQAPGKGLEWVAVIAYDGSNKLYADSVKGRFTISRDNSKNTLYLQMNSLRAEDTAVYYCARTPTKYTLGFAFDIWGQGTMVTVSS
VL: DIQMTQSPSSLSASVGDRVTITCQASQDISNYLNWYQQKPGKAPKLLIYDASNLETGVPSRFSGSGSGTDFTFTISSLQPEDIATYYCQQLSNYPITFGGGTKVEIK
notes: IgG
On to B14, for which the dissociation constant Kd in assay [1] turned out to be 0.711 nM; in assay [2], 2.59 nM.

B15: SA-19-80 (antibody, V domains shown)
VH: EVQLLESGGGVVQPGRSLRLSCAASGFTFSSYGMHWVRQAPGKGLEWVAGILYDGSNKYYADSVKGRFTISRDNSKNTLYLQMDGLRAEDTAVYYCARHSVKYTLGFAFDIWGQGTMVTVSS
VL: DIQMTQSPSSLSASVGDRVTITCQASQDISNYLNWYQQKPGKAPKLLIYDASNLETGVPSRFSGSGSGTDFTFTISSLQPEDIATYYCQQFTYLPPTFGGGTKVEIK
notes: IgG
As to B15, the Kd in assay [1] stood at 1.41 nM; in assay [2], 4.25 nM.

B16: SA-13 (antibody, V domains shown)
VH: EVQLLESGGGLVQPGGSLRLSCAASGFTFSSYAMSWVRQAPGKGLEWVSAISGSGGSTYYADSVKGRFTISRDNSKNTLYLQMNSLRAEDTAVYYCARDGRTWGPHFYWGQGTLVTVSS
VL: DIQMTQSPSSLSASVGDRVTITCRASQSISSYLNWYQQKPGKAPKLLIYAASSLQSGVPSRFSGSGSGTDFTLTISSLQPEDFATYYCQQGYIYPPTFGGGTKVEIK
notes: IgG; also called SA-13 (parental)
Consider B16, for which the binding result in assay [3] was “no binding (tested: 1 ug/ml)”; with Mouse SIRPA D1 Fc it was “no binding (tested: 100 nM)”. In addition, the Kd with Human SIRPb D1 Fc is 19.6 nM; in assay [2], 12.3 nM. Also, the figures for the “relative MFI” value in assay [4] and in assay [5] were 59.9 fold over background and 0.571 fold over background, respectively.

B17: SA-5-59 (antibody, V domains shown)
VH: EVQLLESGGGLVQPGGSLRLSCAASGFTFDNYAMSWVRQAPGEGLEWVSAVSGSGGSTYYADSVRGRFTISRDNSKNTLYLQMDSLRAEDTAVYYCAKDTGIDFWARTPPYFDLWGRGTLVTVSS
VL: DIQLTQSPSSVSASVGDRVTITCRASQDISSWLAWYQQKPGKAPKLLIYAASSLQSGVPSRFSGSGSGTDFTLTISSLQPEDFATYYCQQGYIFPRTFGGGTKVEIK
notes: IgG
Molecule B17 showed a Kd in assay [1] of 3.03 nM. The binding result in assay [2] is “no binding (tested: 100 nM)”.

B18: SA-5-58 (antibody, V domains shown)
VH: EVQLLESGGGLVQPGGSLRLSCAASGFTFDSYAMSWVRQAPGKGLEWVSAISGSGGSTYHADSVKGRFTISRDNSKNTLYLQMNSLRAEDTAVYYCAKDTGISLWSVTPPYFDLWGRGTLVTVSS
VL: DIQLTQSPSSVSASVGDRVTITCRASQDISSWLAWYQQKPGKAPKLLIYAASSLQSGVPSRFSGSGSGTDFTLTISSLQPEDFATYYCQQGYIFPRTFGGGTKVEIK
notes: IgG
B18 returned a dissociation constant (Kd) in assay [1] of 2.78 nM. Moreover, the binding result in assay [2] is “no binding (tested: 100 nM)”.

B19: SA-5-57 (antibody, V domains shown)
VH: EVQLLESGGGLVQPGGSLRLSCAASGFTFDSYAMSWVRQAPGKGLEWVSATSGGGGSTYHADPVKGRFTISRDNSKNTLYLQMNSLRAEDTAVYYCAKDITDDFWSVTPPYFDLWGRGTLVTVSS
VL: DIQLTQSPSSVSASVGDRVTITCRASQDISSWLAWYQQKPGKAPKLLIYAASSLQSGVPSRFSGSGSGTDFTLTISSLQPEDFATYYCQQGYIFPRTFGGGTKVEIK
notes: IgG
B19 showed a Kd in assay [1] of 2.61 nM. Also, the binding result in assay [2] is recorded as “no binding (tested: 100 nM)”.

B20: SA-5-61 (antibody, V domains shown)
VH: EVQLLESGGGLVQPGGSLKLSCAASGFTFDSYAMSWVRQAPGKGLEWVSAISGSGGSTYYADSVKGRFTISRDNSKNTLYLQMNSLRAEDTAVYYCAKDTGIDFWGQYPPYFDLWGRGTLVTVSS
VL: DIQLTQSPSSVSASVGDRVTITCRASQDISSWLAWYQQKPGKAPKLLIYAASSLQSGVPSRFSGSGSGTDFTLTISSLQPEDFATYYCQQGYIFPRTFGGGTKVEIK
notes: IgG
On to B20, for which the Kd was found to be 2.3 nM in assay [1] and 9.31 nM in assay [2].

B21: SA-13-69 (antibody, V domains shown)
VH: EVQLLESGGGLVQPGGSLRLSCAASGFTFTEYAMSWVRQAPGKGLEWVSAISGSGGSTYYADSVKARFTISRDNSKNTLYLQMNSLRAEDTAVYYCARDGTQWGPHFYWGQGTLVTVSS
VL: DIQMTQSPSSLSASVGDRVTITCRASQSISSYLNWYQQKPGKAPKLLIYAASSLQSGVPSRFSGSGSGTDFTLTISSLQPEDFATYYCQQGYIYPPTFGGGTKVEIK
notes: IgG
B21: in assay [2], binding was put at a Kd of 3.99 nM. This counts as single-digit nanomolar.
